B1: WT hDAPK2 expressed in HEK293T cells (CaM pull-down from lysate) [human] / calcium/calmodulin on Sepharose 4B (Sepharose 4B-CaM) [not stated] (parent complex)
chain 1: MFQASMRSPNMEPFKQQKVEDFYDIGEELGSGQFAIVKKCREKSTGLEYAAKFIKKRQSRASRRGVSREEIEREVSILRQVLHHNVITLHDVYENRTDVVLILELVSGGELFDFLAQKESLSEEEATSFIKQILDGVNYLHTKKIAHFDLKPENIMLLDKNIPIPHIKLIDFGLAHEIEDGVEFKNIFGTPEFVAPEIVNYEPLGLEADMWSIGVITYILLSGASPFLGDTKQETLANITAVSYDFDEEFFSQTSELAKDFIRKLLVKETRKRLTIQEALRHPWITPVDNQQAMVRRESVVNLENFRKQYVRRRWKLSFSIVSLCNHLTRSLMKKVHLRPDEDLRNCESDTEEDIARRKALHPRRRSSTS
chain 2: not shown

Variants of: B1
Assay: CaM pull-down from HEK293T cell lysate, western blot; HEK293T transfected cells; EGTA-mediated elution on Sepharose 4B-CaM; read off a plot

response	Variant
~1 relative unit (normalized to W305D)	chain 1 W315D
~0.42 relative unit (normalized to W305D)	chain 1 R57E, chain 1 R60E, chain 1 R63E, chain 1 R64E, chain 1 W315D
